According to publication PMC9976899, “Identification of a novel 5-aminomethyl-2-thiouridine methyltransferase in tRNA modification” (Nucleic Acids Research, 2023):

Target: the molecule itself
Test: SEC; oligomeric state of saMnmM in solution examined by size exclusion chromatography; conditions not given

B1: Staphylococcus aureus MnmM (5-aminomethyl-2-thiouridine methyltransferase, formerly YtqB) (enzyme)
chain: MKLERILPFSKTLIKQHITPESIVVDATCGNGNDTLFLAEQVPEGHVYGFDIQDLALENTRDKVKDFNHVSLIKDGHENIEHHINDAHKGHIDAAIFNLGYLPKGDKSIVTKPDTTIQAINSLLSLMSIEGIIVLVIYHGHSEGQIEKHALLDYLSTLDQKHAQVLQYQFLNQRNHAPFICAIEKIS
notes: MnmM (YtqB) of Staphylococcus aureus, UniProt Q2FXG9; gene codon-optimized and synthesized; Truncated constructs are stated only for the plant orthologs; A C-terminal His-tag (pLATE31) is stated expressly only for the B. subtilis gene; also called saMnmM; saYtqB; source: E. coli BL21(DE3), purified (HisTrap HP, SEC Superdex 75)
- stoichiometry N: 2
